B1: Proteasome activator complex subunit 4 (Homo sapiens), Q14997 (parent)
chain: MEPAERAGVGEPPEPGGRPEPGPRGFVPQKEIVYNKLLPYAERLDAESDLQLAQIKCNLGRAVQLQELWPGGLFWTRKLSTYIRLYGRKFSKEDHVLFIKLLYELVSIPKLEISMMQGFARLLINLLKKKELLSRADLELPWRPLYDMVERILYSKTEHLGLNWFPNSVENILKTLVKSCRPYFPADATAEMLEEWRPLMCPFDVTMQKAITYFEIFLPTSLPPELHHKGFKLWFDELIGLWVSVQNLPQWEGQLVNLFARLATDNIGYIDWDPYVPKIFTRILRSLNLPVGSSQVLVPRFLTNAYDIGHAVIWITAMMGGPSKLVQKHLAGLFNSITSFYHPSNNGRWLNKLMKLLQRLPNSVVRRLHRERYKKPSWLTPVPDSHKLTDQDVTDFVQCIIQPVLLAMFSKTGSLEAAQALQNLALMRPELVIPPVLERTYPALETLTEPHQLTATLSCVIGVARSLVSGGRWFPEGPTHMLPLLMRALPGVDPNDFSKCMITFQFIATFSTLVPLVDCSSVLQERNDLTEVERELCSATAEFEDFVLQFMDRCFGLIESSTLEQTREETETEKMTHLESLVELGLSSTFSTILTQCSKEIFMVALQKVFNFSTSHIFETRVAGRMVADMCRAAVKCCPEESLKLFVPHCCSVITQLTMNDDVLNDEELDKELLWNLQLLSEITRVDGRKLLLYREQLVKILQRTLHLTCKQGYTLSCNLLHHLLRSTTLIYPTEYCSVPGGFDKPPSEYFPIKDWGKPGDLWNLGIQWHVPSSEEVSFAFYLLDSFLQPELVKLQHCGDGKLEMSRDDILQSLTIVHNCLIGSGNLLPPLKGEPVTNLVPSMVSLEETKLYTGLEYDLSRENHREVIATVIRKLLNHILDNSEDDTKSLFLIIKIIGDLLQFQGSHKHEFDSRWKSFNLVKKSMENRLHGKKQHIRALLIDRVMLQHELRTLTVEGCEYKKIHQDMIRDLLRLSTSSYSQVRNKAQQTFFAALGAYNFCCRDIIPLVLEFLRPDRQGVTQQQFKGALYCLLGNHSGVCLANLHDWDCIVQTWPAIVSSGLSQAMSLEKPSIVRLFDDLAEKIHRQYETIGLDFTIPKSCVEIAELLQQSKNPSINQILLSPEKIKEGIKRQQEKNADALRNYENLVDTLLDGVEQRNLPWKFEHIGIGLLSLLLRDDRVLPLRAIRFFVENLNHDAIVVRKMAISAVAGILKQLKRTHKKLTINPCEISGCPKPTQIIAGDRPDNHWLHYDSKTIPRTKKEWESSCFVEKTHWGYYTWPKNMVVYAGVEEQPKLGRSREDMTEAEQIIFDHFSDPKFVEQLITFLSLEDRKGKDKFNPRRFCLFKGIFRNFDDAFLPVLKPHLEHLVADSHESTQRCVAEIIAGLIRGSKHWTFEKVEKLWELLCPLLRTALSNITVETYNDWGACIATSCESRDPRKLHWLFELLLESPLSGEGGSFVDACRLYVLQGGLAQQEWRVPELLHRLLKYLEPKLTQVYKNVRERIGSVLTYIFMIDVSLPNTTPTISPHVPEFTARILEKLKPLMDVDEEIQNHVMEENGIGEEDERTQGIKLLKTILKWLMASAGRSFSTAVTEQLQLLPLFFKIAPVENDNSYDELKRDAKLCLSLMSQGLLYPHQVPLVLQVLKQTARSSSWHARYTVLTYLQTMVFYNLFIFLNNEDAVKDIRWLVISLLEDEQLEVREMAATTLSGLLQCNFLTMDSPMQIHFEQLCKTKLPKKRKRDPGSVGDTIPSAELVKRHAGVLGLGACVLSSPYDVPTWMPQLLMNLSAHLNDPQPIEMTVKKTLSNFRRTHHDNWQEHKQQFTDDQLLVLTDLLVSPCYYA

This experiment covers variants of B1. The conditions noted are these: with h4_human H4C16, P62805.
Turning to N1716T;F1717S, the “effect of a mutation on the interaction” value was “disrupting interaction strength”.
